Molecular target: NES-Venus-miniGs
Assay: BRET (NanoLuc-labelled receptor and Venus-labelled mini-Gs recruitment)
Settings: three independent experiments; for percent of parent: Emax of the DMCH concentration-response; for other: pEC50: pEC50 of the agonist DMCH for mini-Gs recruitment

Row | Substance | percent of parent [%] | other: pEC50
1 | mTAAR7f with N-terminal twin-strep tag and SNAP-tag and C-terminal nanoluc (wild type) (from UniProt Q5QD08) D127A | 0 | –
2 | mTAAR7f with N-terminal twin-strep tag and SNAP-tag and C-terminal nanoluc (wild type) (from UniProt Q5QD08) Y132A | 17 | 3.6

Results, then the substance that gave them:

Row | percent of parent [%] | other: pEC50 | Substance
3 | 60 | 4.9 | mTAAR7f with N-terminal twin-strep tag and SNAP-tag and C-terminal nanoluc (wild type) (from UniProt Q5QD08) C131A
4 | 0 | – | mTAAR7f with N-terminal twin-strep tag and SNAP-tag and C-terminal nanoluc (wild type) (from UniProt Q5QD08) V315A
5 | 24 | 5.3 | mTAAR7f with N-terminal twin-strep tag and SNAP-tag and C-terminal nanoluc (wild type) (from UniProt Q5QD08) W286Y
6 | 47 | 4.2 | mTAAR7f with N-terminal twin-strep tag and SNAP-tag and C-terminal nanoluc (wild type) (from UniProt Q5QD08) Y289A
